Source: paper PMC11491487

What was measured:
[1] = target: chiRyR-I4657M/G4819E (chiRyR carrying the two resistance mutations) (rabbit) (UniProt P11716); assay: cryo-EM structure; 5 mg/ml purified chiRyR samples with 5 mM caffeine, 2 mM ATP, 100 µM CaM1234, Ca2+, 2% or 5% DMSO, with or without diamide (50 µM FLU or TET; 625 µM CHL); 1 h at room temperature; C4 symmetry in refinement
[2] = target: chimeric RyR (chiRyR): rabbit RyR1 carrying four Spodoptera frugiperda RyR residues of the diamide-binding pocket (rabbit) (UniProt P11716); assay: as above

Substance | stoichiometry N [1] | stoichiometry N [2]
chiRyR-I4657M/G4819E (chiRyR carrying the two resistance mutations), P11716 1-5037 (receptor) | 4 | 
chimeric RyR (chiRyR): rabbit RyR1 carrying four Spodoptera frugiperda RyR residues of the diamide-binding pocket, P11716 1-5037 (receptor) |  | 4
